Series [1] has as its target GST-hUpf1 1019-1118 (GST fusion protein containing the carboxyl-terminal region of hUpf1, amino acids 1019-1118) (UniProt Q92900).
In series [2] the test system is GST-p53 1-70 (GST fusion protein containing the first 70 amino acids of p53).

Turning to HA-ATMWT (HA-tagged wild-type ATM), the “phosphorylation in immune complex kinase assay” value in series [1] is “this substrate was phosphorylated by both ATM and ATX, with the latter protein kinase showing the higher specific catalytic activity”. In addition, the “specific kinase activity in immune complex kinase assay” value in series [2] is recorded as “the specific kinase activity of HA-ATXWT towards GST-p531-70 was significantly higher than that of HA-ATM”.
In the case of HA-ATXWT (HA-tagged wild-type long ATX), in series [1], the “phosphorylation in immune complex kinase assay” value was “this substrate was phosphorylated by both ATM and ATX, with the latter protein kinase showing the higher specific catalytic activity”. Further, in series [2], the “phosphorylation in immune complex kinase assay, compared with GST-hUpf1 1019-1118” value is reported as “GST-p531-70 was more avidly phosphorylated by ATX than was the GST-hUpf11019-1118 substrate” and the “specific kinase activity (ratio of 32P incorporation into substrate to level of HA-tagged protein kinase), relative to ATMWT” value is given as “the specific kinase activity of ATXWT was approximately 3.5-fold higher than that of ATMWT”. Also, the “phosphorylation in immune complex kinase assay” value in the series with GST-p53 1-70 (S15A) is recorded as “phosphorylation of GST-p531-70 by ATXWT was nearly abolished by substitution of the Ser-15 residue in p53 with Ala”.

Source of the values: patent publication US20030228675.
